The target in assay [1] is T1, human 5T4-His protein (human, UniProt Q13641 32-355).
T1 construct: also called recombinant 5T4 protein (human 5T4-his tag); human 5T4 protein; not shown: His tag
T1 sequence (looked up): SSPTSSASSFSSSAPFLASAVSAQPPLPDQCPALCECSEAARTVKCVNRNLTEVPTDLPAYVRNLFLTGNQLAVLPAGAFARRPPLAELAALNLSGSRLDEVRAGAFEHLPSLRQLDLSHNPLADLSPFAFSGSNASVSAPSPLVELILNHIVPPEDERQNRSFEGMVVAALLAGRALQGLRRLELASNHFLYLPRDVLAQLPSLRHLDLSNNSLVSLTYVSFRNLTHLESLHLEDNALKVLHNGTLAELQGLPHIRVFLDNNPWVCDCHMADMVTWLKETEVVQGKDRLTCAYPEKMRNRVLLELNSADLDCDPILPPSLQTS
Description: ELISA, coated 5T4-His. Here is the method: To evaluate the binding activity of 159D5 humanized antibodies to human 5T4, the 159D5 chimeric antibody along with 159D5 humanized mAbs were subjected to ELISA test.
Briefly, microtiter plates were coated with human 5T4-His protein at 1 μg/ml in PBS, 100 μl/well at 4° C. overnight, then blocked with 150 μl/well of 10% BSA. Serial dilutions of antibodies were added to each well and incubated for 1 hour at 37° C. The plates were washed with PBS/Tween and then incubated with Goat Anti-Human IgG-HRP for 30 mins at 37° C. After washing, the plates were developed with TMB substrate and analyzed by spectrophotometer at OD 450 nm. As shown in FIG. 14 and Table 12, most of the humanized antibodies bound to human 5T4 with high activity.
For orientation: ELISA stands for enzyme-linked immunosorbent assay.

Assay [2] deals with T1, human 5T4-His protein. Description: SPR Biacore, Protein A capture, 50 nM 5T4-His. How it is done:
The binding of the 159D5 humanized antibodies to recombinant 5T4 protein (human 5T4-his tag) was tested with Biacore using a capture method. The mAbs were captured using Protein A chip. 50 nM of human 5T4-his tag protein was injected over captured antibody for 3 mins at a flow rate of 30 μl/min. The antigen was allowed to dissociate for 600 s. All the experiments were carried out on a Biacore T200. Data analysis was carried out using the Biacore T200 evaluation software.
In general terms: In SPR one partner is held on a chip, and binding of the other changes the refractive index at the surface.

The target of the next assay is T2, cynomolgus 5T4 protein (cynomolgus monkey, UniProt Q4R8Y9 35-355, limits assumed).
T2 construct: Coated protein in ELISA; the screening step names a cyno 5T4-His protein; also called cyno 5T4; recombinant cyno 5T4-His protein
T2 sequence (looked up): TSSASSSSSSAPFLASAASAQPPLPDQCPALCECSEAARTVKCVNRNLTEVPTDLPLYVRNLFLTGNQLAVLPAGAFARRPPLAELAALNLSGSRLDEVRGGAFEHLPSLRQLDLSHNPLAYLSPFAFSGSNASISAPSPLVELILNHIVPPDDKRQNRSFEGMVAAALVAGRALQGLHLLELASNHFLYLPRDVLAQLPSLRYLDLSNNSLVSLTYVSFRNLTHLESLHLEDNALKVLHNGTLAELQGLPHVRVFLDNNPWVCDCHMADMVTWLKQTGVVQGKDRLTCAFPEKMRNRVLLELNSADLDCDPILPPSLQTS
Kind of assay: ELISA, coated antigen. Here is the method: (§1) ELISA testing was carried out to evaluate the binding of chimeric antibodies to human and cynomolgus, respectively. The antibody portion of naptumomab (NeoTX) that targets 5T4 (abbreviated as naptumomab in the present disclosure), was generated and used as a benchmark.
(§2) Briefly, microtiter plates were coated with human and cynomolgus 5T4 proteins at […] in PBS, 100 μl/well at 4° C. overnight, then blocked with 150 μl/well of 1% BSA. Serial dilutions of chimeric antibodies were added to each well and incubated for 1 hour at RT. The plates were washed with PBS/Tween and then incubate with mouse-anti-human IgG Fc antibody conjugated with Horse Radish Peroxidase (HRP) for 30 mins at RT. After washing, the plates were developed with TMB substrate and analyzed by spectrophotometer at OD 450 nm. All the 5T4 chimeric mAbs bound to human and cynomolgus 5T4 (FIG. 1-2 and Table 3).

Assay [3] deals with T1, human 5T4-His protein. Description: ELISA, coated antigen. Here is the method: as §1, §2
For assay [4], the target named is T1, human 5T4-His protein. Kind of assay: SPR Biacore, Protein A capture.
Assay [5] deals with T3, human 5T4 expressed on cells (human, UniProt Q13641 32-420).
T3 construct: whole, on cells; also called CHOK1-hu5T4; CHO-K1-expressing human 5T4
T3 sequence (looked up): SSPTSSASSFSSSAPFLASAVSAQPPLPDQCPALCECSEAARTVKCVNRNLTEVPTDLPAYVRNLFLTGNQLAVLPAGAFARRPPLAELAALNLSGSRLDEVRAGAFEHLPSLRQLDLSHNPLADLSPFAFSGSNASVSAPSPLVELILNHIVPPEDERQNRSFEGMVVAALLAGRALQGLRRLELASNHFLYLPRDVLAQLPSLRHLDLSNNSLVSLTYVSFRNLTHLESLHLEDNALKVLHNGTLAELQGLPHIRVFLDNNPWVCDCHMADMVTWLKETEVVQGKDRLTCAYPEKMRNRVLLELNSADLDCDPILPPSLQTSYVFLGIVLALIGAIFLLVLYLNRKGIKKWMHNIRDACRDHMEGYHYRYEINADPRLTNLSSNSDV
Description: flow cytometry, CHOK1-hu5T4 cells. (In general: Flow cytometry measures light scatter and fluorescence of single cells or particles in a stream.)

B1: Hu159D5-10 (antibody, V domains shown)
VH: EVQLVESGGGVVQPGRSLRLSCAASGFTFSNFGMHWVRQAPGKGLEWVAYISSGSSTFYYADSVKGRFTISRDNSKNTLYLQMNSLRAEDTAVYFCARSPAYYRYGLDYWGQGTTVTVSS
VL: DIVMTQSPDSLAVSLGERATINCRASQSVSSSTFSYMHWYQQKPGQPPKLLIYSSSNLESGVPDRFSGSGSGTDFTLTISSLQAEDVAVYYCQHSWEIPYTFGGGTKVEIK
notes: humanized
For B1, in the assay with human 5T4-His protein [1], the EC50 came out at 94 pM. Also, in the assay with human 5T4-His protein [2], the equilibrium dissociation constant (Kd) came to 9310 pM, the koff was found to be 0.000488 s⁻¹ and the kon turned out to be 52400 M⁻¹ s⁻¹.

B2: Hu159D5-12 (antibody, V domains shown)
VH: EVQLVESGGGVVQPGRSLRLSCAASGFTFSNFGMHWVRQAPGKGLEWVAYISSGSSTFYYADSVKGRFTISRDNSKNTLYLQMNSLRAEDTAVYFCARSPAYYRYGLDYWGQGTTVTVSS
VL: DIVLTQSPDSLAVSLGERATINCRASQSVSSSTFSYMHWYQQKPGQPPKLLIKSSSNLESGVPDRFSGSGSGTDFTLTISSLQAEDVAVYYCQHSWEIPYTFGGGTKVEIK
notes: humanized
In the assay with human 5T4-His protein [1], B2 registered a concentration for a half-maximal effect (EC50) of 120 pM. Besides, in the assay with human 5T4-His protein [2], binding was characterised by a dissociation constant (Kd) of 1210 pM, the koff was found to be 0.000267 s⁻¹ and the kon turned out to be 222000 M⁻¹ s⁻¹.

B3: Hu159D5-11 (antibody, V domains shown)
VH: EVQLVESGGGVVQPGRSLRLSCAASGFTFSNFGMHWVRQAPGKGLEWVAYISSGSSTFYYADSVKGRFTISRDNSKNTLYLQMNSLRAEDTAVYFCARSPAYYRYGLDYWGQGTTVTVSS
VL: DIVMTQSPDSLAVSLGERATINCRASQSVSSSTFSYMHWYQQKPGQPPKLLIKSSSNLESGVPDRFSGSGSGTDFTLTISSLQAEDVAVYYCQHSWEIPYTFGGGTKVEIK
notes: humanized
B3: a half-maximal effect in the assay with human 5T4-His protein [1] (EC50) was put at 120 pM. In the assay with human 5T4-His protein [2], this molecule showed a dissociation constant (Kd) of 1060 pM, a koff of 0.000273 s⁻¹ and a kon of 257000 M⁻¹ s⁻¹.

B4: 37G6 chimeric antibody (antibody, V domains shown)
VH: QVQLQQPGAELVKPGASVKMSCKASGYTFTSYWITWVKQRPGQGLERIGDIYPGSGTINYNEKFKSKATLTVDTSSSTAYMQLSSLTSEDSAVYCCARSDGNYYFDYWGQGTTLKVSS
VL: QIVLSQSPAILSASPGEKVTMTCRASSSVNYMHWYQQKPGSSPKPWIYATSNLASGVPVRFSGSGSGTSYSLTISRVEAEDAATYYCQQWSSNPPTFGGGTKLEIK
The molecule B4 yielded an EC50 with cynomolgus 5T4 protein of 280 pM. The molecule also returned an EC50 in the assay with human 5T4-His protein [3] of 130 pM. In addition, in the assay with human 5T4-His protein [4], the Kd amounted to 590 pM, the koff was 0.000486 s⁻¹ and the kon came to 823000 M⁻¹ s⁻¹.

B5: trispecific antibody with anti-5T4 portion of Hu393E9-45-P2 (protein, part only; not given: other two arms, Fc, linkers, format, not shown: another chain or arm of the molecule; a dimerising Fc or GST; small tags and cut ends)
VH: EVQLVESGGGLVQPGGSLRLSCAASGFTFTDYYMSWVRQAPGKGLEWVGFIRNKGNGYTTEYSASVKGRFTISRDNSKSSLYLQMNSLKTEDTAVYYCARYRGNPHYAMDYWGQGTLVTVSS
VL: EIVLTQSPGTLSLSPGERATLSCRASESVEFYGTSFLQWYQQKPGQAPRLLIYGASNVESGIPDRFSGSGSGTDFTLTISRLEPEDIAVYFCQQSRKVPSTFGGGTKVEIK
B5 yielded an EC50 (read off the curve) in assay [5] of 2000 pM.

B6: trispecific antibody with anti-5T4 portion of Hu393E9-62-P2 (protein, part only; not given: other two arms, Fc, linkers, format, not shown: another chain or arm of the molecule; a dimerising Fc or GST; small tags and cut ends)
VH: EVQLVESGGGLVQPGGSLRLSCAASGFTFTDYYMSWVRQAPGKGLEWVGFIRNKGNGYTTEYSASVKGRFTISRDNAKSSLYLQMNSLRAEDTAVYYCARYRGNPHYAMDYWGQGTLVTVSS
VL: EIVLTQSPATLSVSPGERATLSCRASESVEFYGTSFLQWYQQKPGQAPRLLIYGASNVESGIPARFSGSGSGTEFTLTISSLQSEDIAVYFCQQSRKVPSTFGGGTKVEIK
For the molecule B6, the EC50 (read off the curve) in assay [5] was found to be 2000 pM.

One may read the EC50 as the concentration that produces a half-maximal response. Read a low EC50 as a more potent agent. Broadly, the Kd is the equilibrium constant for the complex coming apart. Read a high Kd as a looser complex. The term koff denotes the rate constant with which the complex falls apart. Low values mean slow dissociation, high ones fast dissociation. For orientation: kon means the second-order rate constant of association. The low end stands for slow association, the high end for fast association. As usually defined, the EC50 (read off the curve) is the concentration giving half of the maximal effect. A lower EC50 (read off the curve) goes with greater potency.
